The nature of the data set: self-splicing fitness, log relative to wild type (ln ratio); higher = more splicing; Tetrahymena group I intron in knt gene, E. coli kanamycin selection, DiMSum; sequences stand for … in CUCUCU…GGAGGGAAAAGUUAUCAGGCAUGCACCUGGUAGCUAGUCUUUAAACCAAUAGAUUGCAUCGGUUUAAAAGGCAAGACCGUCAAAUUGCGGGAAAGGGGUCAACAGCCGUUCAGUACCAAGUCUCAGGGGAAACUUUGAGAUGGCCUUGCAAAGGGUAUGGUAAUAAGCUGACGGACAUGGUCCUAACCACGCAGCCAAGUCCUAAGUCAACAGAUCUUCUGUUGAUAUGGAUGCAGUUCACAGACUAAAUGUCGGUCGGGGAAGAUGUAUUCUUCUCAUAAGAUAUAGUCGGACCUCUCCUUAAUGGGAGCUAGCGGAUGAAGUGAUGCAACACUGGAGCCGCUGGGAACUAAUUUGUAUGCGAAAGUAUAUUGAUUAGUUUUGGAGUACUCGUGGUCG
In a few lines: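 Fitness was computed with DiMSum as the error-weighted combination of replicate fold changes, kanamycin versus none, each normalised to wild type. The library randomised all eight intron nucleotides of the P1ex region, with the intron placed in the knt kanamycin-resistance gene on pET-22b(+) in E. coli BL21(DE3). Six replicate transformations were grown overnight at 37°C or 30°C on LB agar with or without 25 μg/mL kanamycin, plus 100 μg/mL carbenicillin, 50 μM IPTG and 0.2% rhamnose. Pooled colonies were amplicon-sequenced on an Illumina HiSeq 2500.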

± gives the uncertainty stated by the source.

Here are results for 76 sequences from the supplement of paper PMC7877785.

For the sequence GCCUAGCAAUAUUACGCGCC, the “self-splicing fitness (ln)” value by setting is: (30 °C) -2.42 ± 0.34; (37 °C) -1.39 ± 0.31.
On to GCCUAGCAAUAUUACGCUGG, for which the “self-splicing fitness (ln)” value (30 °C) was -2.92 ± 0.17 and the “self-splicing fitness (ln)” value (37 °C) was -3.83 ± 0.42.
GCCUAGCAAUAUUACGGAAG: the “self-splicing fitness (ln)” value by setting is: (30 °C) -2.96 ± 0.17; (37 °C) -1.44 ± 0.17.
With GCCUAGCAAUAUUACGGGAG, the “self-splicing fitness (ln)” value is, setting by setting: (30 °C) -0.724 ± 0.094; (37 °C) -0.391 ± 0.094.
Taken in the same sequence, the figures for GCCUAGCAAUAUUACGUGAA were -0.836 ± 0.073 and 0.346 ± 0.077.
On to GCGAAGCAAUAUUACGACAC, for which the “self-splicing fitness (ln)” value reads like this: (30 °C) -0.709 ± 0.21; (37 °C) 0.892 ± 0.34.
As to GCGAAGCAAUAUUACGACUA, the “self-splicing fitness (ln)” value was 0.115 ± 0.22 (30 °C) and -1.94 ± 0.2 (37 °C).
On the same counts, the results for GCGAAGCAAUAUUACGAGUG are -1.09 ± 0.1 and -2.13 ± 0.12.
Take GCGAAGCAAUAUUACGAUAG: the “self-splicing fitness (ln)” value was -2.35 ± 0.14 (30 °C) and -1.51 ± 0.17 (37 °C).
Consider GCGAAGCAAUAUUACGAUUA, for which the “self-splicing fitness (ln)” value (30 °C) was -1.52 ± 0.3 and the “self-splicing fitness (ln)” value (37 °C) is -0.0699 ± 0.23.
As to GCGAAGCAAUAUUACGCCCC, the “self-splicing fitness (ln)” value (30 °C) is -2.37 ± 0.46.
GCGAAGCAAUAUUACGCGUG: the “self-splicing fitness (ln)” value is -1.54 ± 0.12 (30 °C) and -1.7 ± 0.13 (37 °C).
On the same counts, the results for GCGAAGCAAUAUUACGCUCG are -2.95 ± 0.29 and -2.12 ± 0.27.
Taken in the same sequence, the figures for GCGAAGCAAUAUUACGCUGA were -0.605 ± 0.24 and -1.5 ± 0.34.
On the same counts, the results for GCGAAGCAAUAUUACGGAAA are -3.34 ± 0.36 and -1.57 ± 0.27.
On to GCGAAGCAAUAUUACGGCAU, for which the “self-splicing fitness (ln)” value (30 °C) was -1.25 ± 0.099 and the “self-splicing fitness (ln)” value (37 °C) is -0.00655 ± 0.089.
On the same counts, the results for GCGAAGCAAUAUUACGGCCU are -1.4 ± 0.12 and 0.334 ± 0.16.
Take GCGAAGCAAUAUUACGGCUC: the “self-splicing fitness (ln)” value was -1.78 ± 0.17 (30 °C) and -2.01 ± 0.25 (37 °C).
GCGAAGCAAUAUUACGGCUU: where the note is “30 °C”, the “self-splicing fitness (ln)” value was -2.39 ± 0.36.
Turning to GCGAAGCAAUAUUACGGGUA, the “self-splicing fitness (ln)” value is -3.04 ± 0.23 (30 °C) and -0.904 ± 0.17 (37 °C).
Taken in the same sequence, the figures for GCGAAGCAAUAUUACGGUAG were -4.07 ± 0.42 and -2.77 ± 0.26.
Consider GCGAAGCAAUAUUACGGUCC, for which the “self-splicing fitness (ln)” value was -3.6 ± 0.25 (30 °C) and -2.27 ± 0.31 (37 °C).
Taken in the same sequence, the figures for GCGAAGCAAUAUUACGGUGG were -4.24 ± 0.23 and -3.08 ± 0.27.
On the same counts, the results for GCGAAGCAAUAUUACGUCCG are -1.24 ± 0.14 and -0.577 ± 0.2.
Taken in the same sequence, the figures for GCGAAGCAAUAUUACGUGAG were -1.89 ± 0.091 and -2.01 ± 0.1.
Take GCGAAGCAAUAUUACGUGCU: the “self-splicing fitness (ln)” value runs as follows: (30 °C) -2.63 ± 0.16; (37 °C) -2.75 ± 0.2.
Taken in the same sequence, the figures for GCGAAGCAAUAUUACGUUUG were -2.87 ± 0.14 and -2.68 ± 0.23.
Taken in the same sequence, the figures for GCGCAGCAAUAUUACGACCU were 0.0686 ± 0.071 and 0.0313 ± 0.084.
Taken in the same sequence, the figures for GCGCAGCAAUAUUACGACUU were -0.0557 ± 0.087 and 0.099 ± 0.093.
On to GCGCAGCAAUAUUACGAGGA, for which the “self-splicing fitness (ln)” value was -1.89 ± 0.3 (30 °C) and -0.618 ± 0.16 (37 °C).
Taken in the same sequence, the figures for GCGCAGCAAUAUUACGAGGC were -2.7 ± 0.35 and -1.29 ± 0.24.
Consider GCGCAGCAAUAUUACGAGGG, for which the “self-splicing fitness (ln)” value was -2.78 ± 0.09 (30 °C) and -1.84 ± 0.098 (37 °C).
Taken in the same sequence, the figures for GCGCAGCAAUAUUACGAGUC were -1.6 ± 0.13 and -1.36 ± 0.24.
On the same counts, the results for GCGCAGCAAUAUUACGAUGA are -0.132 ± 0.099 and -0.33 ± 0.092.
With GCGCAGCAAUAUUACGCACA, the “self-splicing fitness (ln)” value is -1.5 ± 0.12 (30 °C) and -0.062 ± 0.11 (37 °C).
Taken in the same sequence, the figures for GCGCAGCAAUAUUACGCCCA were 0.169 ± 0.24 and -0.637 ± 0.33.
On the same counts, the results for GCGCAGCAAUAUUACGCUAC are -1.82 ± 0.17 and -1.71 ± 0.3.
Taken in the same sequence, the figures for GCGCAGCAAUAUUACGGAAA were -1.97 ± 0.23 and -0.698 ± 0.2.
As for GCGCAGCAAUAUUACGGAUU, the “self-splicing fitness (ln)” value is, setting by setting: (30 °C) -0.79 ± 0.039; (37 °C) -0.328 ± 0.056.
Turning to GCGCAGCAAUAUUACGGGCU, the “self-splicing fitness (ln)” value (30 °C) was -3.6 ± 0.23 and the “self-splicing fitness (ln)” value (37 °C) was -3.02 ± 0.27.
Consider GCGCAGCAAUAUUACGGGGG, for which the “self-splicing fitness (ln)” value by setting is: (30 °C) -2.2 ± 0.12; (37 °C) -1.4 ± 0.12.
Turning to GCGCAGCAAUAUUACGGGGU, the “self-splicing fitness (ln)” value is, setting by setting: (30 °C) -2.94 ± 0.096; (37 °C) -2.31 ± 0.13.
For GCGCAGCAAUAUUACGGUAA, the “self-splicing fitness (ln)” value (30 °C) was -1.55 ± 0.11 and the “self-splicing fitness (ln)” value (37 °C) is 0.236 ± 0.11.
Taken in the same sequence, the figures for GCGCAGCAAUAUUACGGUUC were -0.737 ± 0.077 and 0.0559 ± 0.082.
Taken in the same sequence, the figures for GCGCAGCAAUAUUACGGUUU were -0.323 ± 0.048 and -0.167 ± 0.057.
In the case of GCGCAGCAAUAUUACGUCGA, the “self-splicing fitness (ln)” value (30 °C) is -0.665 ± 0.09 and the “self-splicing fitness (ln)” value (37 °C) came to 0.801 ± 0.13.
On the same counts, the results for GCGCAGCAAUAUUACGUGAA are 0.0716 ± 0.076 and 0.149 ± 0.074.
Taken in the same sequence, the figures for GCGCAGCAAUAUUACGUGAG were -0.213 ± 0.054 and 0.445 ± 0.082.
Regarding GCGCAGCAAUAUUACGUGCA, the “self-splicing fitness (ln)” value (30 °C) is -2.09 ± 0.096 and the “self-splicing fitness (ln)” value (37 °C) was -0.706 ± 0.08.
For the sequence GCGGAGCAAUAUUACGACAU, the “self-splicing fitness (ln)” value is, setting by setting: (30 °C) -1.38 ± 0.016; (37 °C) -0.573 ± 0.035.
Taken in the same sequence, the figures for GCGGAGCAAUAUUACGACCU were -0.927 ± 0.2 and -1.02 ± 0.19.
Consider GCGGAGCAAUAUUACGAGUG, for which the “self-splicing fitness (ln)” value was -2.86 ± 0.34 (30 °C) and -2.71 ± 0.48 (37 °C).
Regarding GCGGAGCAAUAUUACGCUAU, the “self-splicing fitness (ln)” value reads like this: (30 °C) -3.16 ± 0.36; (37 °C) -2.53 ± 0.49.
In the case of GCGGAGCAAUAUUACGCUGG, under “37 °C”, the “self-splicing fitness (ln)” value was -2.1 ± 0.4.
As to GCGGAGCAAUAUUACGGCGU, the “self-splicing fitness (ln)” value runs as follows: (30 °C) -3.49 ± 0.33; (37 °C) -2.08 ± 0.31.
On the same counts, the results for GCGGAGCAAUAUUACGUCGG are -2.62 ± 0.12 and -1.78 ± 0.17.
For the sequence GCGGAGCAAUAUUACGUUUC, the “self-splicing fitness (ln)” value (30 °C) is -2.57 ± 0.39.
Regarding GCGUAGCAAUAUUACGAACG, the “self-splicing fitness (ln)” value (30 °C) was -2.48 ± 0.29 and the “self-splicing fitness (ln)” value (37 °C) was -1.79 ± 0.27.
On the same counts, the results for GCGUAGCAAUAUUACGAUAA are -0.962 ± 0.21 and -0.707 ± 0.24.
As to GCGUAGCAAUAUUACGAUUC, the “self-splicing fitness (ln)” value is -0.141 ± 0.098 (30 °C) and -0.0224 ± 0.11 (37 °C).
GCGUAGCAAUAUUACGCACC: the “self-splicing fitness (ln)” value (30 °C) was -4.01 ± 0.37 and the “self-splicing fitness (ln)” value (37 °C) was -1.49 ± 0.34.
As for GCGUAGCAAUAUUACGCGAA, the “self-splicing fitness (ln)” value (37 °C) is -1.31 ± 0.39.
On to GCGUAGCAAUAUUACGCGCU, for which the “self-splicing fitness (ln)” value was -3.31 ± 0.2 (30 °C) and -2.84 ± 0.35 (37 °C).
With GCGUAGCAAUAUUACGCGGC, the “self-splicing fitness (ln)” value by setting is: (30 °C) -2.64 ± 0.27; (37 °C) -2.08 ± 0.46.
For the sequence GCGUAGCAAUAUUACGGCCG, the “self-splicing fitness (ln)” value is -1.01 ± 0.16 (30 °C) and 0.509 ± 0.34 (37 °C).
On the same counts, the results for GCGUAGCAAUAUUACGGCUA are -1.92 ± 0.26 and -0.79 ± 0.2.
On the same counts, the results for GCGUAGCAAUAUUACGGUAG are -2.9 ± 0.28 and -2.03 ± 0.23.
Taken in the same sequence, the figures for GCGUAGCAAUAUUACGGUCA were -0.597 ± 0.081 and -0.142 ± 0.083.
As for GCGUAGCAAUAUUACGGUGU, the “self-splicing fitness (ln)” value was -3.33 ± 0.21 (30 °C) and -1.48 ± 0.14 (37 °C).
Taken in the same sequence, the figures for GCGUAGCAAUAUUACGGUUC were -2.26 ± 0.14 and -0.643 ± 0.18.
On the same counts, the results for GCGUAGCAAUAUUACGGUUG are -2.96 ± 0.13 and -1.75 ± 0.14.
As for GCGUAGCAAUAUUACGUAAC, the “self-splicing fitness (ln)” value is -3.58 ± 0.27 (30 °C) and -0.0467 ± 0.15 (37 °C).
On the same counts, the results for GCGUAGCAAUAUUACGUAGG are -3.73 ± 0.22 and -2.02 ± 0.19.
In the case of GCGUAGCAAUAUUACGUCGA, the “self-splicing fitness (ln)” value by setting is: (30 °C) -2.69 ± 0.35; (37 °C) -1.85 ± 0.32.
Taken in the same sequence, the figures for GCGUAGCAAUAUUACGUCGC were -2.62 ± 0.13 and -1.84 ± 0.21.
In the case of GCGUAGCAAUAUUACGUCUU, the “self-splicing fitness (ln)” value is, setting by setting: (30 °C) -3.15 ± 0.098; (37 °C) -1.93 ± 0.1.
